Results on seven molecules are retold here after article PMC10874388, “Cyclic peptides discriminate BCL-2 and its clinical mutants from BCL-XL by engaging a single-residue discrepancy” (Nature Communications, 2024).

In test [1] the target is T1, BFL-1 (Homo sapiens, UniProt Q16548).
T1 construct: BFL-1 (residues 1–151); vector-borne tag of pET-22b (Ni-NTA purification implies a His tag); made in house; host or cells: E. coli BL21 (DE3)
T1 sequence (Q16548 1-151): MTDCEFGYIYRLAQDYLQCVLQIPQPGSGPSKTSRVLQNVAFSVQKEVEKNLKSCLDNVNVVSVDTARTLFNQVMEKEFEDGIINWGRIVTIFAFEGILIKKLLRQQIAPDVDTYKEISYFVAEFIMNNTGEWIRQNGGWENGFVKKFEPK
The experiment in a line: SPR binding assay, BFL-1. As to conditions: NB = no binding. The text has this: (§1) The DNA fragments encoding human BCL-XL ([…], with […] removed), BCL-w (residues 6–152), MCL-1 (residues 152–308) and BFL-1 (residues 1–151) as previously reported[18] were cloned into a pET-22b vector (Invitrogen), respectively. A chimeric human BCL-2 (including residues 1–50 and 92–207) was constructed, by removing the internal long loop (residues 51–91) and replacing its residues 35–50 with residues 33–48 of BCL-XL to solubilize the protein[14], and then it was cloned into a pET28a-Sumo vector (Invitrogen). All BCL-2 mutants (G101V, F104L, Y103D, D111A) were generated by mutagenic PCR, according to the QuikChange (Stratagene) protocol.
(§2) SPR assays were performed using a Biacore T200 instrument in running buffer consisting 10 mM PBS, 50 μM EDTA and 0.05% Tween-20 at 25 °C. Biotinylated proteins were immobilized on a CAP sensor chip (Cytiva, 28920234). […] The binding affinities were quantified by the Biacore evaluation software using 1:1 binding model. The reproducibility of the assays was confirmed by performing replicate determinations.

Test [2] deals with MCL-1 (Homo sapiens, UniProt Q07820). The test is described as follows: SPR binding assay, MCL-1. As to conditions: NB = no binding.
Excerpt: as §1, §2

Test [3] has as its target T2, BCL-XL (Homo sapiens, UniProt Q07817, DEL27-81).
T2 construct: human BCL-XL (residues 1–210, with 27–81 and 210–233 removed); vector-borne tag of pET-22b (Ni-NTA purification implies a His tag); made in house; host or cells: E. coli BL21 (DE3)
The experiment in a line: SPR binding assay, BCL-XL. As to conditions: affinity fitting, mean ± SD of three independent experiments, 25 °C.
Excerpt: as §1, §2

Test [4] concerns the target T3, human BCL-XL (residues 1-210, with 27-81 and 210-233 removed) (human, UniProt Q07817-1 1-210, 27-81 removed, biotinylated for the SPR assays (sites not given)).
T3 construct: BCL-XL, human, residues 1-210 with the loop 27-81 removed; source: E. coli BL21 (DE3), purified (Ni-NTA, Superdex 75, RESOURCE Q, Superdex 200)
The experiment in a line: fluorescence polarisation; direct binding: 20 nM FITC-labelled peptide, protein from 60 nM to 1000 nM; 1x PBS pH 7.4, room temperature, 10 min. As to conditions: both partners purified.

For test [5], the target named is T4, chimeric human BCL-2 (residues 1-50 and 92-207, residues 35-50 replaced with residues 33-48 of BCL-XL) (human, UniProt P10415 1-34; Q07817-1 33-48; P10415 92-207, biotinylated for the SPR assays (sites not given)).
T4 construct: BCL-2, human, residues 1-34 (residues 35-50 are replaced, see next part); BCL-XL, human, residues 33-48, replacing residues 35-50 of BCL-2; BCL-2, human, residues 92-207 (internal loop 51-91 removed); also called BCL-2 WT; source: E. coli BL21 (DE3), purified (Ni-NTA, Superdex 75, RESOURCE Q, Superdex 200)
T4 chain (looked up): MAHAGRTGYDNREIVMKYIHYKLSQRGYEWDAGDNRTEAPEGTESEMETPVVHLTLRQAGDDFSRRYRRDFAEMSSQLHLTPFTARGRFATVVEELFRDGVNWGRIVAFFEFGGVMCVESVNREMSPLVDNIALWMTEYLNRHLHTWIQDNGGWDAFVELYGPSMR
The description is as above. As to conditions: both partners purified.

The target of test [6] is T3, human BCL-XL (residues 1-210, with …). The test is described as follows: SPR; Biacore T200; biotinylated proteins immobilised on a CAP sensor chip, peptides flowed over at 30 uL/min in multiple cycles; 10 mM PBS, 50 uM EDTA, 0.05% Tween-20, 25 °C; 1:1 binding model. As to conditions: both partners purified.
Test [7] concerns the target T4, chimeric human BCL-2 (residues 1-50 and …). The description is as above. As to conditions: both partners purified.

Starred links: 1 amine or outer side, 2 acyl side, 3 side chain; linkers in the order of their positions; H or OH if unused. Positions of bridges follow the written chain, without caps; N, C: chain ends. Residues, ends and D or L forms follow the SMILES beside them. No end group written: not given here. *: point of attachment. X1 = O=C(C[*:2])NCCNC(=O)c1ccc(C2=N[C@H](C(=O)[*:1])CS2)cc1; FITC = O=C1OC2(c3ccc(O)cc3Oc3cc(O)ccc32)c2ccc(NC(=S)*)cc21; ADT (ClAc-3) = not defined here; c‑ADT = not defined here

T3 sequence (Q07817 other isoform, or with tags, fused parts or gaps 27-81 removed | 27-81 removed): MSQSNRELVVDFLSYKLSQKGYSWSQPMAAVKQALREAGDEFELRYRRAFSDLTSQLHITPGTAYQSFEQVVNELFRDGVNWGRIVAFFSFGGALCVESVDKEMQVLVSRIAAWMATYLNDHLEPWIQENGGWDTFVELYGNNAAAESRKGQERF
Chain of MCL-1 (Q07820 152-308): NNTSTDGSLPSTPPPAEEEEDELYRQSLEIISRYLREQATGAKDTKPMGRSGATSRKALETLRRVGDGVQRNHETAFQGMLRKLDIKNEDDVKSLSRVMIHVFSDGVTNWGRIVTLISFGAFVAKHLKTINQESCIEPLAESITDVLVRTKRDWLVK

For `CC[C@H](C)[C@@H]1NC(=O)[C@@H]2CCCN2C(=O)[C@@H]2CSC(=N2)c2ccc(cc2)C(=O)NCCNC(=O)CSC[C@@H](C(N)=O)NC(=O)[C@H](Cc2ccccc2)NC(=O)[C@H](CCC(=O)O)NC(=O)[C@H](CC(=O)O)NC(=O)[C@H](Cc2c[nH]c3ccccc23)NC(=O)[C@H](CCC(=O)O)NC(=O)[C@H](Cc2ccc(O)cc2)NC(=O)[C@H](CCCNC(=N)N)NC1=O` [cp2] (PIRYEWDEFC-NH2; linker N-10 via X1), the Kd in test [1] and in test [2] was > 12800 nM each time.

Turning to `CC[C@H](C)[C@@H]1NC(=O)[C@@H]2CCCN2C(=O)[C@@H]2CSC(=N2)c2ccc(cc2)C(=O)NCCNC(=O)CSC[C@@H](C(N)=O)NC(=O)[C@H](CCC(=O)O)NC(=O)[C@H](C(C)C)NC(=O)[C@H](CC(=O)O)NC(=O)[C@H](Cc2c[nH]c3ccccc23)NC(=O)[C@@H]2CCCN2C(=O)[C@H](Cc2ccc(O)cc2)NC(=O)[C@H](CCCNC(=N)N)NC1=O` [cp3] (PIRYPWDVEC-NH2; linker N-10 via X1), the dissociation constant Kd in test [1] and in test [2] was > 12800 nM each time.

Take `C[C@@H]1NC(=O)[C@@H]2CCCN2C(=O)[C@@H]2CSC(=N2)c2ccc(cc2)C(=O)NCCNC(=O)CSC[C@@H](C(=O)NCC(=O)N[C@@H](CO)C(=O)NCC(=O)N[C@@H](CO)C(=O)N[C@@H](CCCNC(=N)N)C(=O)N[C@@H](CCCCN)C(=O)N[C@@H](CCCCN)C(=O)N[C@@H](CCCNC(=N)N)C(=O)N[C@@H](CCCNC(=N)N)C(=O)N[C@@H](CCC(N)=O)C(=O)N[C@@H](CCCNC(=N)N)C(=O)N[C@@H](CCCNC(=N)N)C(=O)N[C@@H](CCCNC(=N)N)C(=O)N[C@@H](CCC(=O)O)C(=O)N[C@@H](CCC(=O)O)C(=O)N[C@@H](CCC(=O)O)C(=O)N[C@@H](CCC(=O)O)C(=O)N[C@@H](CCC(=O)O)C(=O)N[C@@H](CCC(=O)O)C(=O)N[C@@H](CCC(=O)O)C(=O)N[C@@H](CCC(=O)O)C(N)=O)NC(=O)[C@H](CCC(=O)O)NC(=O)[C@H](Cc2ccc(O)cc2)NC(=O)[C@H](CC(=O)O)NC(=O)[C@H](Cc2c[nH]c3ccccc23)NC(=O)CNC(=O)[C@H](Cc2ccc(O)cc2)NC(=O)[C@H](CCCNC(=N)N)NC1=O` [cp1-TAT-8E] (PARYGWDYECGSGSRKKRRQRRREEEEEEEE-NH2; linker N-10 via X1): the affinity in test [3], expressed as Kd, was 1170 ± 70 nM.

B1: cp2-F (peptide)
peptide: CPIRYEWDEFCGK(FITC)
modifications: linker 1-11 via ADT (ClAc-3) (inferred); reading uncertain; also: modified by ClAc-3, printed as CPIRYEWDEFCG{K(FITC)}
notes: also called cp2-FITC; source: synthetic peptide
Regarding B1, the Kd in test [4] is 810 nM; in test [5], 97.2 nM.

B2: cp3-F (peptide)
peptide: CPIRYPWDVECGK(FITC)
modifications: linker 1-11 via ADT (ClAc-3) (inferred); reading uncertain; also: modified by ClAc-3, printed as CPIRYPWDVECG{K(FITC)}
notes: also called cp3-FITC; source: synthetic peptide
For the molecule B2, the Kd in test [4] is 270 nM; in test [5], 177 nM.

B3: cp2-TAT-8E (peptide)
peptide: CPIRYEWDEFCGSGSRKKRRQRRREEEEEEEE
modifications: linker 1-11 via c‑ADT; reading uncertain
notes: source: synthetic peptide
Regarding B3, the Kd is 130 ± 9 nM in test [6] and 140 ± 50 nM in test [7].

B4: cp3-TAT-8E (peptide)
peptide: CPIRYPWDVECGSGSRKKRRQRRREEEEEEEE
modifications: linker 1-11 via c‑ADT; reading uncertain
notes: source: synthetic peptide
In the case of B4, the Kd in test [6] stood at 20 ± 1 nM; in test [7], 70 ± 10 nM.
